One molecule from patent US20050070692A1 (published 2005) can be followed below.

Broadly, the IC50 is the concentration that gives 50% inhibition. For orientation: Kd means a measure of binding affinity in units of concentration.

Assay [1] concerns the target T1, human IL-1β (human, UniProt P01584 117-269).
T1 construct: mature; also called mature human IL-1β; Interleukin-1β
The assay can be described thus: competition ELISA on coated human IL-1β against biotinylated Mu007, Exp. B. The procedure:
(§1) Wells of 96-well ELISA plates (Nunc-lmmuno plate, Cat # 439454, NalgeNunc) were coated with 100 μL of 0.5. μg/mL of human IL-1β in 0.2M sodium carbonate-bicarbonate buffer (pH 9.4) overnight at 4° C., washed with Wash Buffer, blocked with Superblock blocking buffer for 30 min at 37° C., and washed again with Wash Buffer. A mixture of biotinylated Mu007 (0.16 μg/mL final concentration) and competitor antibody (Mu007, Hu007, or Hu007 analogs starting at 100 μg/mL final concentration and serial 3-fold dilutions) in ELISA Buffer were added in triplicate in a final volume of 100 μL per well. As a no-competitor control, 100 μL of 0.16 μg/mL biotinylated Mu007 was used. As a background control, 100 gLL of ELISA Buffer was used. ELISA plates were incubated at 37° C. for 2 hr. After washing the wells with Washing Buffer, 100 μL of 1 μg/mL HRP-conjugated streptavidin (Jackson ImmunoResearch) was added to each well. ELISA plates were incubated at room temperature for 30 min and washed with Washing Buffer. For color development, 100 μL/well of ABTS substrate was added. Color development was stopped by adding 100 μL/well of 2% oxalic acid. Absorbance was read at 415 nm.
(§2) Mu007, Hu007 and Hu007 analogs competed with biotinylated Mu007 in a concentration-dependent manner. The IC₅₀ values of Mu007 and Hu007 in three independent ELISA competition experiments, obtained using the computer software Prism (GraphPad Software Inc., San Diego, Calif.) are shown in Table 1. The relative binding of Hu007 was on average 89% of Mu007.

Another assay concerns the target T2, rat IL-1β (rat, UniProt Q63264 117-268).
T2 sequence (looked up): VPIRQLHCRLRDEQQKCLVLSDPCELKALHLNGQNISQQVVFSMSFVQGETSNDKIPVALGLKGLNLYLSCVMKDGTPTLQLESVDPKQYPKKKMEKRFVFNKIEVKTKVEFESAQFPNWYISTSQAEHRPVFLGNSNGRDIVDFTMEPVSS
The assay can be described thus: BIAcore, antibody captured on anti-IgG chip, ligand flowed. The method, then: (§3) Affinities and specificities of both Hu007 and Mu007 were determined using BlAcore measurements. BIAcore™ is an automated biosensor system that measures molecular interactions. (Karlsson, et al. (1991) J. Immunol. Methods 145: 229-240). In these experiments antibody was immobilized at low density on a BIAcore™ chip. Ethyl-dimethylaminopropyl-carbodiimide (EDC) was used to couple reactive amino groups to purified goat anti-human IgG or goat anti-rabbit IgG to a flow cell of a carboxy-methyl (CM5) BIAcore™ sensor chip. Goat IgG was diluted in sodium acetate buffer, pH 4.0, and immobilized on a flow cell of a CM5 chip using EDC to yield 1000 response units. Unreacted sites were blocked with ehanolamine. A flow rate of 60 μL/min was used. Multiple binding/elution cycles were performed by injection a 100 μL solution of 15 μg/mL Mu007 or Hu007 followed by human IL-1β, mouse IL-1β, rat IL-1β, cynomolgus monkey IL-1β, porcine IL-1β, human IL-1 receptor antagonist, and human IL-1α at decreasing concentrations for each cycle (e.g., 1500, 750, 375, 188, 94, 47, 23.5, 12, and 0 picomolar). Elution was performed with glycine-HCl, pH 1.5. BIAevaluation™ was used to analyze the kinetic data. Table 2 depicts the affinities of Hu007 and Mu007 for human and cynomolgus IL-1β. […] Cynomolgus and porcine IL-1β had 100% binding to Hu007 relative to human IL-1β.

Another assay addresses T3, human IL-1α (human, UniProt P01583 113-271).
T3 sequence (looked up): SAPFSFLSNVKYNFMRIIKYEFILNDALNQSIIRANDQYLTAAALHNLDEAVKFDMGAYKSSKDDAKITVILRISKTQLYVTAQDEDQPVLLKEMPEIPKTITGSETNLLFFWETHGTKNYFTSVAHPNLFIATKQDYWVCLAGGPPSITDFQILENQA
The assay is described as above. The method, then:
as §3

Assay [2] deals with T4, human IL-1 receptor antagonist (human, UniProt P18510 26-177).
T4 construct: also called IL-1ra
T4 sequence (P18510 26-177 limits assumed): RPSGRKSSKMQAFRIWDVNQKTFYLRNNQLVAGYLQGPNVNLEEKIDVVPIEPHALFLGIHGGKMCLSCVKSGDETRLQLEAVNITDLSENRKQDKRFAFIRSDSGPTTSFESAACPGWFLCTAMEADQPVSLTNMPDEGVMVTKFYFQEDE
The description is as above. The method, then: as §3

Assay [3] concerns the target T1, human IL-1β. The assay can be described thus: competition ELISA on coated human IL-1β against biotinylated Mu007, Exp. C. The method, then: as §1, §2
(In general: In an ELISA, binding on a coated surface is turned into a signal by an enzyme label.)

The target of assay [4] is T1, human IL-1β. Nature of the assay: BIAcore, antibody captured on protein A CM5 chip, human IL-1β flowed. The procedure: Affinities and specificities of several Hu007 analogs were determined using BIAcore measurements. BIAcore™ is an automated biosensor system that measures molecular interactions. (Karlsson, et al. (1991) J. Immunol. Methods 145: 229-240). In these experiments antibody was immobilized at low density on a BIAcore™ chip. Ethyl-dimethylaminopropyl-carbodiimide (EDC) was used to couple reactive amino groups to protein A to a flow cell of a carboxy-methyl (CM5) BIAcore™ sensor chip. Protein A was diluted in sodium acetate buffer, pH 4.5, and immobilized on a flow cell of a CM5 chip using EDC to yield approximately 1000 response units. Unreacted sites were blocked with ethanolamine. A flow rate of 60 μl/min was used. Multiple binding/elution cycles were performed by injection of 10 μl of a 5 μg/mL Hu007 solution, and heavy chain CDR2 analogs N55D, N55S, N55Q, G56A, and G56V, followed by human IL-1β at decreasing concentrations for each cycle (e.g. 1500, 750, 375, 188, and […]). Elution was performed with glycine-HCl, pH 1.5. BIAevaluation™ was used to analyze the kinetic data. Table 5 depicts the affinities of Hu007 and the various Hu007 analogs for human IL-1β.
A general note: Surface plasmon resonance follows binding to a sensor surface in real time, without labels.

Assay [5] has as its target T1, human IL-1β. Nature of the assay: cell-based or functional assay.
For assay [6], the target named is T1, human IL-1β. The assay can be described thus: competition ELISA on coated human IL-1β against biotinylated Mu007, average. The method, then:
as §1
Mu007, Hu007 and Hu007 analogs competed with biotinylated Mu007 in a concentration-dependent manner. […]

For assay [7], the target named is T1, human IL-1β. The assay can be described thus: competition ELISA on coated human IL-1β against biotinylated Mu007, Exp. A. The procedure:
as §1, §2

B1: humanized antibody Hu007 (antibody, human IgG1, kappa, V domains shown)
VH: QVQLVQSGAEVKKPGASVKVSCKVSGYTFSRYWIEWVRQAPGKGLEWIGEILPGNGNINYNEKFKGKATITADTSTDTAYMELSSLRSEDTAVYYCSTIYYDYDQGFTYWGQGTLVTVSS
VL: DIQMTQSPSSLSASVGDRVTITCKASQDIDRYLSWFQQKPGKAPKSLIYRVKRLVDGVPSRFSGSASGTDYTLTISSLQPEDFATYYCLQYDEFPYTFGQGTKLEIKR
notes: Human IgG1 kappa; also called WT; Hu007 WT
In the case of B1, the “Hu007/Mu007 × 100 (IC50 ratio, relative binding against Mu007)” value with human IL-1β [1] is 88%; with human IL-1β [3], 82%; with human IL-1β [6], 89%; in the assay with human IL-1β [7] it was 98%. The IC50 amounted to 0.35 µg/mL with human IL-1β [1], 0.32 µg/mL with human IL-1β [3] and 0.39 µg/mL with human IL-1β [7]. Besides, the binding result (with rat IL-1β; in the assay with human IL-1α; in [2]) was “no binding” in each case. In the assay with human IL-1β [4], this molecule came in with a Kd of 10.5 pM. In the assay with human IL-1β [5], the “IC50, inhibition of IL-1β stimulated proliferation of T1165.17 cells (3H-thymidine), average of three experiments” value was 480 pM. Moreover, the “efficacy relative to Mu007 in the murine model of human IL-1β induced IL-6” value in the assay with human IL-1β [5] is ~0.33 fraction of Mu007.
